According to article PMC2668148:

Tested on: N[C@@H](CCC(=O)Nc1ccc([N+](=O)[O-])cc1)C(=O)O
Experiment: purified protein
Settings: apparent constant; hydrolysis

Substance: HpGT (Helicobacter pylori gamma-glutamyltranspeptidase) (Helicobacter pylori 26695)
- Km: 22.1 ± 1.4 µM
- Vmax: 5.18 µmol/min/mg
